Source: patent US12129308 (Merck KGaA, dated 2024)
Like-named read-outs stand apart in the source and are kept apart here.

B1: C010100683 (bispecific antibody)
chain: EVQLVESGGGLVQPGGSLRLSCAASGFAFSAAYMSWVRQAPGKGLEWVSSISDDGSKTYYADSVKGRFTISRDNSKNTVYLQMNSLRPEDTAVYYCNTGYGATTTRPGRYWGQGTLVTVSSGGGGSGGGGSGGGGSGGGGSGGGGSGGGGSGGGGSEVQLVESGGGLVQPGGSLRLSCAASGSTFIINVVRWYRRAPGKQRELVATISSGGNANYVDSVRGRFTISRDNSKNTVYLQMNSLRPEDTAVYYCNVPTTHYGGVYYGPYWGQGTLVTVSSGGGGSGGGGSGGGGSGGGGSGGGGSGGGGSGGGGSEVQLVESGGGLVQPGGSLRLSCAASGSTFIINVVRWYRRAPGKQRELVATISSGGNANYVDSVRGRFTISRDNSKNTVYLQMNSLRPEDTAVYYCNVPTTHYGGVYYGPYWGQGTLVTVSS
notes: MMP13-Aggrecan bispecific Nanobody construct; also called 62C02SO-114F08SO-114F08SO
B2: 517A01-40E09 clone 80 (bispecific antibody)
chain: EVQLVESGGGLVQPGGSLRLSCAASGRTFSSYAMGWFRQAPGKEREFVAAISWSGGSTYYADSVKGRFTISRDNSKNTVYLQMNSLRPEDTAVYYCTAALAVYGPNRYRYGPVGEYNYWGQGTLVTVSSGGGGSGGGGSGGGGSGGGGSGGGGSGGGGSGGGGSEVQLVESGGGSVQAGGSLRLSCAASGSTFSRYSMNWYRQAPGKQREFVAGISVGRITNYAVSVRGRFTISRDNAEGTGYLQMNSLKPEDTAVYYCNAGGLQGYWGLGTLVTVSS
B3: 40E09-517A01 clone 71 (bispecific antibody)
chain: EVQLVESGGGSVQAGGSLRLSCAASGSTFSRYSMNWYRQAPGKQREFVAGISVGRITNYAVSVRGRFTISRDNAEGTGYLQMNSLKPEDTAVYYCNAGGLQGYWGLGTLVTVSSGGGGSGGGGSGGGGSGGGGSGGGGSGGGGSGGGGSEVQLVESGGGLVQPGGSLRLSCAASGRTFSSYAMGWFRQAPGKEREFVAAISWSGGSTYYADSVKGRFTISRDNSKNTVYLQMNSLRPEDTAVYYCTAALAVYGPNRYRYGPVGEYNYWGQGTLVTVSS
B4: 62C02-40E09 clone 72 (bispecific antibody)
chain: EVQLVESGGALVRPGGSLRLSCAASGFAFSAAYMSWVRQAPGRGLEWVSSISDDGSKTYYADSVKGRFTISRDNAKNTVYLQMNNLKPDDTAVYYCNTGYGATTTRPGRYWGQGTLVTVSSGGGGSGGGGSGGGGSGGGGSGGGGSGGGGSGGGGSEVQLVESGGGSVQAGGSLRLSCAASGSTFSRYSMNWYRQAPGKQREFVAGISVGRITNYAVSVRGRFTISRDNAEGTGYLQMNSLKPEDTAVYYCNAGGLQGYWGLGTLVTVSS
B5: C0101PMP529C12 (VHH)
VHH: DVQLVESGGGLVQPGGSLRLSCVASGSIFSINAMGWYRQAPGKQRELVAAISSGGSTYYADSVKGRFTISRDNSKNTVYLQMNSLRPEDTAVYYCNAAVDASRGLPYELYYYWGQGTLVTVSS
notes: Profile 2 Nanobody; also called C0101529C12
B6: 516G08-40E09 clone 76 (bispecific antibody)
chain: EVQLVESGGGLVQPGGSLRLSCAGSGSIFRINVMAWYRQAPGKQRELVAAITSGGTTNYADSVKGRFTISRDNSKNTVYLQMNSLRPEDTAVYYCYADIGWPYVLDYDFWGQGTLVTVSSGGGGSGGGGSGGGGSGGGGSGGGGSGGGGSGGGGSEVQLVESGGGSVQAGGSLRLSCAASGSTFSRYSMNWYRQAPGKQREFVAGISVGRITNYAVSVRGRFTISRDNAEGTGYLQMNSLKPEDTAVYYCNAGGLQGYWGLGTLVTVSS
B7: C0101PMP521F02 (VHH)
VHH: DVQLVESGGGLVQPGGSLRLSCVASGLTFSSYAMGWFRQAPGKEREFVAAISWSGGRTYYADSVKGRFTISRDNSKNTVYLQMNSLRPEDTAVYYCTAARGPGSVGPSEEYNYWGQGTLVTVSS
notes: Profile 2 Nanobody
B8: C0101PMP519E04 (VHH)
VHH: DVQLVESGGGLVQPGGSLRLSCVASGPTFSDYAMGWFRQAPGKEREFVAAISWSGGSTYYADSVKGRFTISRDNSKNTVYLQMNSLRPEDTAVYYCTAARGGGYRASGGPLSEYNYWGQGTLVTVSS
notes: Profile 2 Nanobody
B9: C0101PMP520B06 (VHH)
VHH: DVQLVESGGGLVQPGGSLRLSCAASGRTFSSYAMGWFRQAPGKEREFVAAISWGGGSTYYSDSVKGRFTISRDNSKNTVYLQMNSLRPEDTAVYYCTAALGSTGSGSTPVPEYRYWGQGTLVTVSS
notes: Profile 2 Nanobody
B10: 40E09-516G08 clone 70 (bispecific antibody)
chain: EVQLVESGGGSVQAGGSLRLSCAASGSTFSRYSMNWYRQAPGKQREFVAGISVGRITNYAVSVRGRFTISRDNAEGTGYLQMNSLKPEDTAVYYCNAGGLQGYWGLGTLVTVSSGGGGSGGGGSGGGGSGGGGSGGGGSGGGGSGGGGSEVQLVESGGGLVQPGGSLRLSCAGSGSIFRINVMAWYRQAPGKQRELVAAITSGGTTNYADSVKGRFTISRDNSKNTVYLQMNSLRPEDTAVYYCYADIGWPYVLDYDFWGQGTLVTVSS
B11: C0101PMP516G08 (VHH)
VHH: DVQLVESGGGLVQPGGSLRLSCAGSGSIFRINVMAWYRQAPGKQRELVAAITSGGTTNYADSVKGRFTISRDNSKNTVYLQMNSLRPEDTAVYYCYADIGWPYVLDYDFWGQGTLVTVSS
notes: Profile 2 Nanobody; also called C0101516G08
B12: C0101PMP062C02 (VHH)
VHH: EVQLVESGGALVRPGGSLRLSCAASGFAFSAAYMSWVRQAPGRGLEWVSSISDDGSKTYYADSVKGRFTISRDNAKNTVYLQMNNLKPDDTAVYYCNTGYGATTTRPGRYWGQGTQVTVSS
notes: Profile 2 Nanobody; also called C0101062C02
B13: 40E09-62C02 clone 69 (bispecific antibody)
chain: EVQLVESGGGSVQAGGSLRLSCAASGSTFSRYSMNWYRQAPGKQREFVAGISVGRITNYAVSVRGRFTISRDNAEGTGYLQMNSLKPEDTAVYYCNAGGLQGYWGLGTLVTVSSGGGGSGGGGSGGGGSGGGGSGGGGSGGGGSGGGGSEVQLVESGGALVRPGGSLRLSCAASGFAFSAAYMSWVRQAPGRGLEWVSSISDDGSKTYYADSVKGRFTISRDNAKNTVYLQMNNLKPDDTAVYYCNTGYGATTTRPGRYWGQGTLVTVSS
B14: C010100681 (bispecific antibody)
chain: EVQLVESGGGLVQPGGSLRLSCAASGFTLAYYSIGWFRQAPGKEREGVSCISSGIDGSTYYADSVKGRFTISRDNAKNTMYLQMNNLKPEDTGVYYCAADPSHYYSEYDCGYYGMDYWGKGTLVTVSSGGGGSGGGGSGGGGSGGGGSGGGGSGGGGSGGGGSEVQLVESGGGLVQPGGSLRLSCAASGSTFIINVVRWYRRAPGKQRELVATISSGGNANYVDSVRGRFTISRDNSKNTVYLQMNSLRPEDTAVYYCNVPTTHYGGVYYGPYWGQGTLVTVSSGGGGSGGGGSGGGGSGGGGSGGGGSGGGGSGGGGSEVQLVESGGGLVQPGGSLRLSCAASGSTFIINVVRWYRRAPGKQRELVATISSGGNANYVDSVRGRFTISRDNSKNTVYLQMNSLRPEDTAVYYCNVPTTHYGGVYYGPYWGQGTLVTVSS
notes: MMP13-Aggrecan bispecific Nanobody construct; also called 80A01-114F08SO-114F08SO

Legend:
Aggrecan = target: T1, Aggrecan; test: competition ELISA (CAP) on Aggrecan; competitor not stated
T1 construct: also called CAP

activated human MMP13 [1] = target: T2, activated human MMP13 (human, UniProt P45452 104-471); test: cell-based or functional assay
activated rat MMP13 [2] = target: T3, activated rat MMP13 (rat, UniProt P23097 99-466); test: cell-based or functional assay
activated human MMP13 [3] = target: T2, activated human MMP13; test: cell-based or functional assay; remark: listed apart in the source
activated rat MMP13 [4] = target: T3, activated rat MMP13; test: cell-based or functional assay; remark: listed apart in the source
bovine MMP13 = bovine MMP13 (bovine, UniProt O77656 104-471); test: cell-based or functional assay
activated human MMP13 [5] = target: T2, activated human MMP13; test: cell-based or functional assay; remark: listed apart in the source
activated dog MMP13 = activated dog MMP13 (dog, UniProt P45452 104-471 (human entry)); test: cell-based or functional assay
cynomolgus MMP13 = cynomolgus MMP13 (cynomolgus, UniProt A0A2K5U988 104-471); test: cell-based or functional assay
[6] = target: T4, activated MMP13 (species not stated) (Homo sapiens (Human), UniProt P45452 104-471, Biotinylated in the TIMP-2 competition ELISA (sites not given). Activated form: pro-peptide removed.); test: TIMP-2 competition ELISA; Nanobody pre-incubated with 1.26 nM activated MMP13-biotin, binding to captured TIMP-2
T4 construct: campaign 4 ELISA; Probably human

Row | Binder | IC50 (Aggrecan) [nM] | potency, human fluorogenic peptide assay (activated human MMP13 [1]) [nM] | IC50, (adapted) rat fluorogenic peptide assay (activated rat MMP13 [2]) [nM] | IC50, human fluorogenic collagen assay (activated human MMP13 [3]) [nM] | IC50, rat fluorogenic peptide assay (activated rat MMP13 [4]) [nM] | IC50, bovine fluorogenic peptide assay (bovine MMP13) [nM] | IC50, human fluorogenic collagen assay (activated human MMP13 [5]) [nM] | IC50, human fluorogenic peptide assay (activated human MMP13 [5]) [nM] | IC50, dog fluorogenic peptide assay (activated dog MMP13) [nM] | IC50, cyno fluorogenic peptide assay (cynomolgus MMP13) [nM] | IC50 [6] [nM] | IC50, human collagenolytic assay (activated human MMP13 [5]) [nM]
1 | B1 | 0.23 | 0.953 |  |  |  |  |  |  |  |  |  | 
2 | B2 |  |  | 0.13 | 4.06 |  |  |  |  |  |  |  | 
3 | B3 |  |  | 0.11 | 6.5 |  |  |  |  |  |  |  | 
4 | B4 |  |  | 0.1 | 2.4 |  |  |  |  |  |  |  | 
5 | B5 |  |  |  |  | 0.2 | 1.2 | 4.9 | 1.2 | 0.2 | 0.7 | 0.4 | 
6 | B6 |  |  | 0.16 | 3.55 |  |  |  |  |  |  |  | 
7 | B7 |  |  |  |  | 2.1 | 16.1 | 20.7 | 7.2 | 5.5 | 7 | 8.5 | 
8 | B8 |  |  |  |  | 3 | 17.1 | 24.8 | 9.5 | 7 | 7.2 | 5.5 | 
9 | B9 |  |  |  |  | 7.8 | 27.7 | 27.5 | 13.4 | 17.3 | 9.5 | 9.3 | 
10 | B10 |  |  | 0.12 | 2.9 |  |  |  |  |  |  |  | 
11 | B11 |  |  | 4.98 | 3.78 | 5.2 | 1.5 | 3.8 | 0.8 | 4.4 | 0.4 | 0.5 | 0.9
12 | B12 |  |  | 2.88 | 8.32 | 1.1 | 3.1 | 8.3 | 1.4 | 1 | 1.4 | 0.9 | 1.4
13 | B13 |  |  | 1.12 |  |  |  |  |  |  |  |  | 
14 | B14 | 0.99 | 1.08 |  |  |  |  |  |  |  |  |  | 
